According to patent US20030175712A1 (published 2003):
Changes are numbered by the printed parent chain.

Key:
[1] = target: Gβγ (Ste4p/Ste18p) in yeast cells (S. cerevisiae) (UniProt P18852); assay: cell-based or functional assay
3×myc-Cdc24-m1 mutant = target: T1, 3×myc-Cdc24-m1 mutant (S. cerevisiae, UniProt P11433 1-854); assay: co-precipitation with Far1-protein A on IgG-Sepharose from yeast extracts
T1 sequence (looked up): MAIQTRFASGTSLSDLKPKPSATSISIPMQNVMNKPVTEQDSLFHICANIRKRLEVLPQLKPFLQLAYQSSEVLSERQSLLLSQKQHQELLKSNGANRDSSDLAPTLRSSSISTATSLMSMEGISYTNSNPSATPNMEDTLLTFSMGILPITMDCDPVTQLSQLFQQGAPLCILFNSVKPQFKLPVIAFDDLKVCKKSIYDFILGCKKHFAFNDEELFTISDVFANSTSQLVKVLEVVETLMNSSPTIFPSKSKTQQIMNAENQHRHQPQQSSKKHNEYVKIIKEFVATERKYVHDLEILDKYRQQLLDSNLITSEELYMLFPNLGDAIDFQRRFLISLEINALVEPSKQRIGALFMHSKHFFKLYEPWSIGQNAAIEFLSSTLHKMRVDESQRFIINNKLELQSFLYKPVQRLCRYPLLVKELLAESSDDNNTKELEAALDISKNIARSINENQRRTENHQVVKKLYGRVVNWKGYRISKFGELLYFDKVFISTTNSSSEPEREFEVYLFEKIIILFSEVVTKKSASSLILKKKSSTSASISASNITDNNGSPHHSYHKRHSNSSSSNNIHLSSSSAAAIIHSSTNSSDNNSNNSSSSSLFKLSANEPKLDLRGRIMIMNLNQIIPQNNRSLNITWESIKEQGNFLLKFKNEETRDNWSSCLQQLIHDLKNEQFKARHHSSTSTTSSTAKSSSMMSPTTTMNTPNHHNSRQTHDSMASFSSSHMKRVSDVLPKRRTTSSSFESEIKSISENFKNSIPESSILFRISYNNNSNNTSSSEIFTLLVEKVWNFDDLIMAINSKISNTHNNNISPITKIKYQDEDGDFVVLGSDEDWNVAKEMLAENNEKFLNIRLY
Description: Although cdc24-m and far1-s mutants result in similar defects in growth orientation during mating, we set out to determine if these genes function in the same orientation process. […] Cdc24 and Far1 were epitope tagged in order to determine whether these proteins interact in yeast cells. The chronosomal copy of Cdc24 was replaced with a 3×myc tagged Cdc24 and the chromosomal copy of Far1 was replaced with Far1 protein A fusion. Both of these fusion proteins are fully functional. Isolation of Far1-protein A from yeast extracts using IgG-Sepharose co-precipitated 3×myc-Cdc24. In contrast, the 3×myc-Cdc24-m1 mutant was defective in binding Far1 in similar imnmunoprecipitation assays.

[2] = target: T2, Cdc24p, two-hybrid construct (limits not stated) (S. cerevisiae, UniProt P11433 1-288); assay: yeast two-hybrid screen
T2 construct: not shown: GAL4 two-hybrid fusion partner
T2 sequence (looked up): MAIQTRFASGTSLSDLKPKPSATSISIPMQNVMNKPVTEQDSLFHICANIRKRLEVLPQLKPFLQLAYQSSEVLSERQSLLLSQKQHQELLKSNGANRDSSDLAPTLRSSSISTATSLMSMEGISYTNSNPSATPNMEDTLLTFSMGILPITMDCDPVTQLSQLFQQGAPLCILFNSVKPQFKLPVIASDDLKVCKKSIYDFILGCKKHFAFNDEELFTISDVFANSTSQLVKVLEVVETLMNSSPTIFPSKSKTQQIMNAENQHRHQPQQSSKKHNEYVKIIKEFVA

MBP-Far1 = target: T3, MBP-Far1 (S. cerevisiae, UniProt P21268 1-830, limits assumed); assay: in vitro binding of fusion proteins purified from E. coli
T3 construct: Expressed and purified from E. coli
T3 sequence (looked up): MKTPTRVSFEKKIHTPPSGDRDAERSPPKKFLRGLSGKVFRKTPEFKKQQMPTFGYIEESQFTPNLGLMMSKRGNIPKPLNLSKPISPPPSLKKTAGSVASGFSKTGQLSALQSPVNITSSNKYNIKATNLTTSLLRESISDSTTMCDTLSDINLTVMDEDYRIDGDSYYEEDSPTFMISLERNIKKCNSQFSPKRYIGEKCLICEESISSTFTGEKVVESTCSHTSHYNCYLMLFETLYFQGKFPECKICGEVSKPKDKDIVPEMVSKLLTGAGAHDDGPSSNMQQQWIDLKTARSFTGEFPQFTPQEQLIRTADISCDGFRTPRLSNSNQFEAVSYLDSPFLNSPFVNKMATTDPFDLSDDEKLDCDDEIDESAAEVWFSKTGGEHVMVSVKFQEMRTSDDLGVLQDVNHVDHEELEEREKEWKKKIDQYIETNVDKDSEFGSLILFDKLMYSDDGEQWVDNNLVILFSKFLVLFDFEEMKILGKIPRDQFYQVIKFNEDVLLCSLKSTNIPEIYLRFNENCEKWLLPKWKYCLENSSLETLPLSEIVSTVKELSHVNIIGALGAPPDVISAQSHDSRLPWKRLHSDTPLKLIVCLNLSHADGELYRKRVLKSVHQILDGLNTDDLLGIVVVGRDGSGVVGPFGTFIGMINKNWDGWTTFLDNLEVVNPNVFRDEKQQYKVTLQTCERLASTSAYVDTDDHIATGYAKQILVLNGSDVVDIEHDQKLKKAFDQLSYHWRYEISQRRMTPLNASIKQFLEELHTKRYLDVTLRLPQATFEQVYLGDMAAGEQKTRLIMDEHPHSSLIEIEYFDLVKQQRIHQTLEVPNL

MBP-Far1 H7 = target: T4, MBP-Far1 H7 (S. cerevisiae, UniProt P21268 1-755); assay: in vitro binding of purified MBP-Far1 and GST-Cdc24 fusions
T4 sequence (looked up): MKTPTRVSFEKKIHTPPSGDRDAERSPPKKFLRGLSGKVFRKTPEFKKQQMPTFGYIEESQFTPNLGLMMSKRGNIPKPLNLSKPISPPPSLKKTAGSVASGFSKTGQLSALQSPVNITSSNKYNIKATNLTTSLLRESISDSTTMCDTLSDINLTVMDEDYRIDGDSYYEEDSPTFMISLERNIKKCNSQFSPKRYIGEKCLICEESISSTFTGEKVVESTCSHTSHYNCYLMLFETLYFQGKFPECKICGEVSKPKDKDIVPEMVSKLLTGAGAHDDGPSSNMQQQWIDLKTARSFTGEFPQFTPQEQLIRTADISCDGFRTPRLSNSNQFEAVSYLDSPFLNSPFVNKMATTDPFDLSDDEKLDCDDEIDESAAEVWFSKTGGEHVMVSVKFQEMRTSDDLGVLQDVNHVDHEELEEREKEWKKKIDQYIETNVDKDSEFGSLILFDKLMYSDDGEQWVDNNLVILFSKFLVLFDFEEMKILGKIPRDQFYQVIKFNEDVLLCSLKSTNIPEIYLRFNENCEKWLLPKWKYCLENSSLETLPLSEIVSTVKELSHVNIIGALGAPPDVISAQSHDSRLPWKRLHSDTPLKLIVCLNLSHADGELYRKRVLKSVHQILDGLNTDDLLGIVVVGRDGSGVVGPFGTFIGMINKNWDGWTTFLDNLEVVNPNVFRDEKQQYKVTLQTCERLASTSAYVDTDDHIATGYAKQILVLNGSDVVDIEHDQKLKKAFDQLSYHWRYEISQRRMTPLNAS

Chain of Gβγ (Ste4p/Ste18p) in yeast cells (S. cerevisiae) (P18852 1-107): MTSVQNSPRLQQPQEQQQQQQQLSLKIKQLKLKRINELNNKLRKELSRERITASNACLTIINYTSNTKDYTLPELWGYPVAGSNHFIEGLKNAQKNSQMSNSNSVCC

Molecule: Cdc24p in CDC24 (wild type) yeast cells (from UniProt P11433 1-854)
- average cosine of the angle of cell projection relative to the micropipet (orientation in a pheromone gradient) [1]: 0.52

B1: Far1 protein A fusion (other, S. cerevisiae, UniProt P21268 1-830, looked up)
chain: T3 sequence (looked up)
notes: Isolated from yeast extracts on IgG-Sepharose; not shown: protein A moiety
- binding result (3×myc-Cdc24-m1 mutant): no binding

B2: Ste4p mutant (SEQ. I.D. No: 13) (other)
chain: MAHQMDSITYSNNVTQQYIQPQSLQDISAVEEEIQNKIEAARQESKQLHAQINKAKHKIQDASLFQMANKVTSLTKNKINLKPNIVLKGHNNKISDFRWSRDSKRILSASQDGFMLIWDSASGLKQNAIPLDSQWVLSCAISPSSTLVASAGLNNNCTIYRVSKENRVAQNVASIFKGHTCYISDIEFTDNAHILTASGDMTCALWDIPKAKRVRGYSDHLGDVLALAIPEEPNLENSSNTFASCGSDGYTYIWDSRSPSAVQSFYVNDSDINALRFFKDGMSIVAGSDNGAINMYDLRSDCSIATFSLFRGYEERTPTPTYMAANMEYNTAQSPQTLKSTSSSYLDNQGVVSLDFSASGRLMYSCYTDIGCVVWDVLKGEIVGKLEGHGGRVTGVRSSPDGLAVCTGSWDSTMKIWSPGYQ
notes: Isolated in a two-hybrid screen; also called mutant G protein β subunit; I.D. No: 12 (nucleotide); not shown: GAL4 two-hybrid fusion partner
- binding result [2]: no binding

B3: Ste4p mutant (SEQ. I.D. No: 15) (other)
chain: B2 chain with G216E, V351A
notes: Isolated in a two-hybrid screen; also called mutant G protein β subunit; I.D. No: 14 (nucleotide); not shown: GAL4 two-hybrid fusion partner
- binding result [2]: no binding

B4: GSTCdc24p (1-472 aa) (other, S. cerevisiae, UniProt P11433 1-472, looked up)
chain: MAIQTRFASGTSLSDLKPKPSATSISIPMQNVMNKPVTEQDSLFHICANIRKRLEVLPQLKPFLQLAYQSSEVLSERQSLLLSQKQHQELLKSNGANRDSSDLAPTLRSSSISTATSLMSMEGISYTNSNPSATPNMEDTLLTFSMGILPITMDCDPVTQLSQLFQQGAPLCILFNSVKPQFKLPVIASDDLKVCKKSIYDFILGCKKHFAFNDEELFTISDVFANSTSQLVKVLEVVETLMNSSPTIFPSKSKTQQIMNAENQHRHQPQQSSKKHNEYVKIIKEFVATERKYVHDLEILDKYRQQLLDSNLITSEELYMLFPNLGDAIDFQRRFLISLEINALVEPSKQRIGALFMHSKHFFKLYEPWSIGQNAAIEFLSSTLHKMRVDESQRFIINNKLELQSFLYKPVQRLCRYPLLVKELLAESSDDNNTKELEAALDISKNIARSINENQRRTENHQVVKKLYGRVV
notes: range 1-472; Expressed in E. coli; also called GSTCdc24 fusion; GST Cdc24 fusion (residues 1-472); not shown: glutathione-S-transferase as encoded by pGEX-2T (Pharmacia)
- binding result (MBP-Far1): binds
- binding result (MBP-Far1 H7): no binding
